From article PMC3823233 (Nature structural & molecular biology, 2013) come the findings set out here.

Test [1] has as its target BG505 SOSIP.664 gp140 trimer (HIV-1 clade A, isolate BG505 …, stabilised, glycosylated).
For the next test, the target named is gp120 from strain JRCSF (HIV-1 (isolate JRCSF), UniProt P20871). The experiment in a line: ELISA.
Another test has as its target gp120 from strain JRFL (HIV-1 clade B, isolate JR-FL, UniProt Q75760, strain). The experiment in a line: ELISA.

B1: PGT 135 Fab (Fab, V domains shown)
VH: QLQMQESGPGLVKPSETLSLSCTVSGDSIRGGEWGDKDYHWGWVRHSAGKGLEWIGSIHWRGTTHYKESLRRRVSMSIDTSRNWFSLRLASVTAADTAVYFCARHRHHDVFMLVPIAGWFDVWGPGVQVTVSS
VL: EIVMTQSPDTLSVSPGETVTLSCRASQNINKNLAWYQYKPGQSPRLVIFETYSKIAAFPARFVASGSGTEFTLTINNMQSEDVAVYYCQQYEEWPRTFGQGTKVDIK
As for B1, in test [1], the “stoichiometry N” value was found to be 3 Fabs per trimer.

B2: PGT 135 IgG (antibody, V domains shown)
VH: QLQMQESGPGLVKPSETLSLSCTVSGDSIRGGEWGDKDYHWGWVRHSAGKGLEWIGSIHWRGTTHYKESLRRRVSMSIDTSRNWFSLRLASVTAADTAVYFCARHRHHDVFMLVPIAGWFDVWGPGVQVTVSS
VL: EIVMTQSPDTLSVSPGETVTLSCRASQNINKNLAWYQYKPGQSPRLVIFETYSKIAAFPARFVASGSGTEFTLTINNMQSEDVAVYYCQQYEEWPRTFGQGTKVDIK
Take B2: the binding result with gp120 from strain JRCSF and with gp120 from strain JRFL was “binds” throughout.
